Experimental findings from US20200087373A1 (UNIVERSITY OF COPENHAGEN, published 2020) are described below.

Ends that are not written are not given here. * marks the point of attachment. C16 diacid = O=C(O)CCCCCCCCCCCCCCC(=O)*; Stearoyl = CCCCCCCCCCCCCCCCCC(=O)*; Palmitoyl = CCCCCCCCCCCCCCCC(=O)*; Myristoyl = CCCCCCCCCCCCCC(=O)*; Lauroyl = CCCCCCCCCCCC(=O)*

The assay addresses T1, human GIP receptor (human, UniProt P48546 22-466).
T1 construct: whole, on cells; also called hGIPR
T1 sequence (looked up): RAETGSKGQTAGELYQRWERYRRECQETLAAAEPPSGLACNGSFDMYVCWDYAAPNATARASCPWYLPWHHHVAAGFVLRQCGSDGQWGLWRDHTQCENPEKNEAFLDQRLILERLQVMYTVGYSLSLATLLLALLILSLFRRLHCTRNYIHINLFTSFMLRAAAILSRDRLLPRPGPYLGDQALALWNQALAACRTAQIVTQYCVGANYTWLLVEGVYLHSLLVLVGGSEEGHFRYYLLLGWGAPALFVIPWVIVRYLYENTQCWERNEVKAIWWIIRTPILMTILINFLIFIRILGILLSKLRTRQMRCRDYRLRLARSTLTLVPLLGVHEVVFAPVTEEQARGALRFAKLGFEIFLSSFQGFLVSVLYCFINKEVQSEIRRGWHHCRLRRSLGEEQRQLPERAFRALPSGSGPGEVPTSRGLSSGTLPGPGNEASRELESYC
Nature of the assay: 125I-hGIP competition binding, COS-7 cells expressing hGIPR.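 Note: nonspecific binding taken as radioligand bound by untransfected cells, binding buffer with or without 2% HSA.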

Usually IC50 stands for the point on the concentration scale where inhibition reaches its midpoint. A low value points to greater potency in that assay. Take EGTFISDYSIAMDKIHQQDFVNWLLAQK(Myristoyl)-NH2 [AT112 [hGIP(3-30)NH2-C14/30]]: the IC50 is 451 nM and the “log IC50” value was -6.3 log M. For EGTFISDYSIAMDKIHQQDFVNWLLAQK(Palmitoyl)-NH2 [AT106 [hGIP(3-30)NH2-C16/30]], in that order: 1410 nM and -5.9 log M.

Consider EGTFISDYSIAMDK(Lauroyl)IHQQDFVNWLLAQK-NH2 [AT102 [hGIP(3-30)NH2-C12/16]], for which the IC50 came to 59.1 nM and the “log IC50” value was -7.2 log M.

On to Palmitoyl-EGTFISDYSIAMDKIHQQDFVNWLLAQK-NH2 [AT104 [hGIP(3-30)NH2-C16/3]], for which the IC50 is 75 nM and the “log IC50” value is -7.1 log M. For Myristoyl-EGTFISDYSIAMDKIHQQDFVNWLLAQK-NH2 [AT110 [hGIP(3-30)NH2-C14/3]], in that order: 55.5 nM and -7.3 log M. For EGTFISDYSIAMDK(Palmitoyl)IHQQDFVNWLLAQK-NH2 [AT105 [hGIP(3-30)NH2-C16/16]], in that order: 522 nM and -6.3 log M.

B1: AT159 [hGIP(3-30)NH2[K16R; H18K; K30R]-C16diacid/18] (peptide)
peptide: EGTFISDYSIAMDRIK(C16 diacid)QQDFVNWLLAQR-NH2
modifications: N-terminus assumed
SMILES: CC[C@H](C)[C@H](NC(=O)[C@H](CO)NC(=O)[C@H](Cc1ccc(O)cc1)NC(=O)[C@H](CC(=O)O)NC(=O)[C@H](CO)NC(=O)[C@@H](NC(=O)[C@H](Cc1ccccc1)NC(=O)[C@@H](NC(=O)CNC(=O)[C@@H](N)CCC(=O)O)[C@@H](C)O)[C@@H](C)CC)C(=O)N[C@@H](C)C(=O)N[C@@H](CCSC)C(=O)N[C@@H](CC(=O)O)C(=O)N[C@@H](CCCNC(=N)N)C(=O)N[C@H](C(=O)N[C@@H](CCCCNC(=O)CCCCCCCCCCCCCCC(=O)O)C(=O)N[C@@H](CCC(N)=O)C(=O)N[C@@H](CCC(N)=O)C(=O)N[C@@H](CC(=O)O)C(=O)N[C@@H](Cc1ccccc1)C(=O)N[C@H](C(=O)N[C@@H](CC(N)=O)C(=O)N[C@@H](Cc1c[nH]c2ccccc12)C(=O)N[C@@H](CC(C)C)C(=O)N[C@@H](CC(C)C)C(=O)N[C@@H](C)C(=O)N[C@@H](CCC(N)=O)C(=O)N[C@@H](CCCNC(=N)N)C(N)=O)C(C)C)[C@@H](C)CC
With B1, the half-inhibitory concentration (IC50) is 18 nM.

B2: AT163 [hGIP(3-30)NH2[H18K]-C16/16] (peptide)
peptide: EGTFISDYSIAMDK(Palmitoyl)IKQQDFVNWLLAQK-NH2
modifications: N-terminus assumed
SMILES: CCCCCCCCCCCCCCCC(=O)NCCCC[C@H](NC(=O)[C@H](CC(=O)O)NC(=O)[C@H](CCSC)NC(=O)[C@H](C)NC(=O)[C@@H](NC(=O)[C@H](CO)NC(=O)[C@H](Cc1ccc(O)cc1)NC(=O)[C@H](CC(=O)O)NC(=O)[C@H](CO)NC(=O)[C@@H](NC(=O)[C@H](Cc1ccccc1)NC(=O)[C@@H](NC(=O)CNC(=O)[C@@H](N)CCC(=O)O)[C@@H](C)O)[C@@H](C)CC)[C@@H](C)CC)C(=O)N[C@H](C(=O)N[C@@H](CCCCN)C(=O)N[C@@H](CCC(N)=O)C(=O)N[C@@H](CCC(N)=O)C(=O)N[C@@H](CC(=O)O)C(=O)N[C@@H](Cc1ccccc1)C(=O)N[C@H](C(=O)N[C@@H](CC(N)=O)C(=O)N[C@@H](Cc1c[nH]c2ccccc12)C(=O)N[C@@H](CC(C)C)C(=O)N[C@@H](CC(C)C)C(=O)N[C@@H](C)C(=O)N[C@@H](CCC(N)=O)C(=O)N[C@@H](CCCCN)C(N)=O)C(C)C)[C@@H](C)CC
Molecule B2 had an IC50 of 205 nM.

B3: AT160 [hGIP(3-30)NH2[H18K]-C18/18] (peptide)
peptide: EGTFISDYSIAMDKIK(Stearoyl)QQDFVNWLLAQK-NH2
modifications: N-terminus assumed
SMILES: CCCCCCCCCCCCCCCCCC(=O)NCCCC[C@H](NC(=O)[C@@H](NC(=O)[C@H](CCCCN)NC(=O)[C@H](CC(=O)O)NC(=O)[C@H](CCSC)NC(=O)[C@H](C)NC(=O)[C@@H](NC(=O)[C@H](CO)NC(=O)[C@H](Cc1ccc(O)cc1)NC(=O)[C@H](CC(=O)O)NC(=O)[C@H](CO)NC(=O)[C@@H](NC(=O)[C@H](Cc1ccccc1)NC(=O)[C@@H](NC(=O)CNC(=O)[C@@H](N)CCC(=O)O)[C@@H](C)O)[C@@H](C)CC)[C@@H](C)CC)[C@@H](C)CC)C(=O)N[C@@H](CCC(N)=O)C(=O)N[C@@H](CCC(N)=O)C(=O)N[C@@H](CC(=O)O)C(=O)N[C@@H](Cc1ccccc1)C(=O)N[C@H](C(=O)N[C@@H](CC(N)=O)C(=O)N[C@@H](Cc1c[nH]c2ccccc12)C(=O)N[C@@H](CC(C)C)C(=O)N[C@@H](CC(C)C)C(=O)N[C@@H](C)C(=O)N[C@@H](CCC(N)=O)C(=O)N[C@@H](CCCCN)C(N)=O)C(C)C
The molecule B3 returned an IC50 of 49 nM.

B4: AT148 [hGIP(3-30)NH2-C12/3] (peptide)
peptide: Lauroyl-EGTFISDYSIAMDKIHQQDFVNWLLAQK-NH2
notes: printed with the same formula as AT101 but a different ID and different values
Take B4: the IC50 turned out to be 24 nM and the “log IC50” value was -8 log M. For EGTFISDYSIAMDKIHQQDFVNWLLAQK(Lauroyl)-NH2 [AT103 [hGIP(3-30)NH2-C12/30]], in that order: 4710 nM and -5.3 log M. On to Stearoyl-EGTFISDYSIAMDKIHQQDFVNWLLAQK-NH2 [AT113 [hGIP(3-30)NH2-C18/3]], for which the IC50 came to 41400 nM and the “log IC50” value is -4.4 log M.

B5: AT120 [hGIP(5-30)NH2-C12/30] (peptide)
peptide: TFISDYSIAMDKIHQQDFVNWLLAQK(Lauroyl)-NH2
modifications: N-terminus assumed
SMILES: CCCCCCCCCCCC(=O)NCCCC[C@H](NC(=O)[C@H](CCC(N)=O)NC(=O)[C@H](C)NC(=O)[C@H](CC(C)C)NC(=O)[C@H](CC(C)C)NC(=O)[C@H](Cc1c[nH]c2ccccc12)NC(=O)[C@H](CC(N)=O)NC(=O)[C@@H](NC(=O)[C@H](Cc1ccccc1)NC(=O)[C@H](CC(=O)O)NC(=O)[C@H](CCC(N)=O)NC(=O)[C@H](CCC(N)=O)NC(=O)[C@H](Cc1c[nH]cn1)NC(=O)[C@@H](NC(=O)[C@H](CCCCN)NC(=O)[C@H](CC(=O)O)NC(=O)[C@H](CCSC)NC(=O)[C@H](C)NC(=O)[C@@H](NC(=O)[C@H](CO)NC(=O)[C@H](Cc1ccc(O)cc1)NC(=O)[C@H](CC(=O)O)NC(=O)[C@H](CO)NC(=O)[C@@H](NC(=O)[C@H](Cc1ccccc1)NC(=O)[C@@H](N)[C@@H](C)O)[C@@H](C)CC)[C@@H](C)CC)[C@@H](C)CC)C(C)C)C(N)=O
On to B5, for which the IC50 was found to be 1090 nM and the “log IC50” value is -6 log M. For EGTFISDYSIAMDKIHQQDFVNWLLAQK(Stearoyl)-NH2 [AT115 [hGIP(3-30)NH2-C18/30]], in that order: 1520 nM and -5.8 log M.

B6: AT154 [hGIP(3-30)NH2-C12/16] (peptide)
peptide: EGTFISDYSIAMDK(Lauroyl)IHQQDFVNWLLAQK-NH2
notes: printed with the same formula as AT102 but a different ID and different values
On to B6, for which the IC50 turned out to be 27 nM and the “log IC50” value was -8 log M.
